System: ETAA1-ATR activating domain (ETAA1-AAD)
Sequence (chain, as listed by the source): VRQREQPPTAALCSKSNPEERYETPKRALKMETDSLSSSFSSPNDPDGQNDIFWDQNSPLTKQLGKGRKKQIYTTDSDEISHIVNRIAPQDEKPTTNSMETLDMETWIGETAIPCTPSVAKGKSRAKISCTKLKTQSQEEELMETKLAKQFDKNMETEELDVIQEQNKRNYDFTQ

ATR (ATM and Rad3-related kinase), sequence (chain, as listed by the source): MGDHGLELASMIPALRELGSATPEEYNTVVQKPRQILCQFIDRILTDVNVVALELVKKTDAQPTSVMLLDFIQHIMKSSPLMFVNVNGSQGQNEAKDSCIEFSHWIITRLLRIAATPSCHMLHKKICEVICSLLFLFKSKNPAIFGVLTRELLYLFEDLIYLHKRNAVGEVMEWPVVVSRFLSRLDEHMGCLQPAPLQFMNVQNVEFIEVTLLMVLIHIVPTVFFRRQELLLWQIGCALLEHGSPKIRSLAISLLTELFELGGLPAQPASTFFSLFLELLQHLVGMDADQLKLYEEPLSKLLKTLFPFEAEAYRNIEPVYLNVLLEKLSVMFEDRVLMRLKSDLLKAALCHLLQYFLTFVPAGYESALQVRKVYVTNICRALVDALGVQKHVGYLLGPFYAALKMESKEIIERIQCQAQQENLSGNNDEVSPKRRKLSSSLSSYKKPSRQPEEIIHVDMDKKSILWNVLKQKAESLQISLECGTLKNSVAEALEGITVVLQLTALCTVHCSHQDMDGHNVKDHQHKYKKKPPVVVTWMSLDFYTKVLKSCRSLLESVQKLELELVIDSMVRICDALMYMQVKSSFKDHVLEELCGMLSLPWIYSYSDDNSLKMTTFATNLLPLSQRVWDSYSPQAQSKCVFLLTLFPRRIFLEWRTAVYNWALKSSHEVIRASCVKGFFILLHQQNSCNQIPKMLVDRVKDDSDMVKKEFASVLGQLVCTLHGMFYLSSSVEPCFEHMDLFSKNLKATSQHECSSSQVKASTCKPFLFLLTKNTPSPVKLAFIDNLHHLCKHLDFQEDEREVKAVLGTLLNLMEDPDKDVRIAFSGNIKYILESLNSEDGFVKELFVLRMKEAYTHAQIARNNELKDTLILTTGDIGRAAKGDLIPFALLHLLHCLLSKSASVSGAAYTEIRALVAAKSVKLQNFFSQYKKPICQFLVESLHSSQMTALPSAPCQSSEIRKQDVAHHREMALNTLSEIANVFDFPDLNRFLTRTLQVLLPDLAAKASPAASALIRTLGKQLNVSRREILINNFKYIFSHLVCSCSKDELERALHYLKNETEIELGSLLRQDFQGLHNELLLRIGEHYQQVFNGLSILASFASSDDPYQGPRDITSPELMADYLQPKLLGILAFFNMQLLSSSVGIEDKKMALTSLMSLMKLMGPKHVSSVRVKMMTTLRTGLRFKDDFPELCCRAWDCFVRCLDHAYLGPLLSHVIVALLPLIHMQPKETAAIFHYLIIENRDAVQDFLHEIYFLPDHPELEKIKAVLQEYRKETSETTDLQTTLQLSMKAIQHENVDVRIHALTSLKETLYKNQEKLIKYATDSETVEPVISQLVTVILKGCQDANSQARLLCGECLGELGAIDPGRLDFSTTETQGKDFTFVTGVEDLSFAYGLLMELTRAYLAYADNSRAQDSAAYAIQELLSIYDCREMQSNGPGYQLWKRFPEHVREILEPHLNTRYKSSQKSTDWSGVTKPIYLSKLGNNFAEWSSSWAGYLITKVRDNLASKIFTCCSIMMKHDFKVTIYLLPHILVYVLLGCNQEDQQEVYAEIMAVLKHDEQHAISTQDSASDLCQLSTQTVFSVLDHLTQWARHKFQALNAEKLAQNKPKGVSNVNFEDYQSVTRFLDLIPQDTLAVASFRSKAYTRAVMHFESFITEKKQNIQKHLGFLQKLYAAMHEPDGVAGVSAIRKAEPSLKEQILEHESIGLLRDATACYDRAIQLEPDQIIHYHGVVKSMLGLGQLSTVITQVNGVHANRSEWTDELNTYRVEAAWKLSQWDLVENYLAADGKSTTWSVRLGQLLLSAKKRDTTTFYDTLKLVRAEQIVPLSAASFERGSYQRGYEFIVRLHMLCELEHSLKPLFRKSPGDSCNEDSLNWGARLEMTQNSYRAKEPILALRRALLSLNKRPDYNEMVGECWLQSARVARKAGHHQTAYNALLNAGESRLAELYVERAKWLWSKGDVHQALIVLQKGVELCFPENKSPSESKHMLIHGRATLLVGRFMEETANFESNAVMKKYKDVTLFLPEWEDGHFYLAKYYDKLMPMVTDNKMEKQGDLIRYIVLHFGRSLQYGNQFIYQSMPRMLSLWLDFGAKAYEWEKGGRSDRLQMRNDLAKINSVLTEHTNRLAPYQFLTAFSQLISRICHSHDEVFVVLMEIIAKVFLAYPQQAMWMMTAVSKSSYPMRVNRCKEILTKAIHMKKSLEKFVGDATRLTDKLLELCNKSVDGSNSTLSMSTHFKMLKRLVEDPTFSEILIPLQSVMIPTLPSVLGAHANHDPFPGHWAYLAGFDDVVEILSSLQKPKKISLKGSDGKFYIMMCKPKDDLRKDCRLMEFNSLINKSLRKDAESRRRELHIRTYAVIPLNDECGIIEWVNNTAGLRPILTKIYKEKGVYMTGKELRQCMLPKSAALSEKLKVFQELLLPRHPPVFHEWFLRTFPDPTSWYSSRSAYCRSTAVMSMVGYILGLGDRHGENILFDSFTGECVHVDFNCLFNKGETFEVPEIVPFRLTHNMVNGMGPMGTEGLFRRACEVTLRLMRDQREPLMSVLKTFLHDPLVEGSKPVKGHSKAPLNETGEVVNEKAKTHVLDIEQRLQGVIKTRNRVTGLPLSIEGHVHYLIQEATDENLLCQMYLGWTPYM

Substance: ATR (ATM and Rad3-related kinase)
- phosphorylation of H2AX, CHK1 and CHK2 (immunoblot and FACS in Dox-iETAA1 ESCs): ATR activation through ETAA1 expression leads to the phosphorylation of H2AX and CHK1 but not CHK2 in ESCs
